{"source": "patent US20240132578A1", "assay_in_all_cases": "cell-based or functional assay", "key": {"[1]": {"molecular_target": "HIV-1 Env of isolate MGRM-AE-002 (pseudovirus) (HIV-1)"}, "[2]": {"molecular_target": "HIV-1 Env of pseudovirus isolate APV-17 (clade B) (HIV-1)"}, "[3]": {"molecular_target": "HIV-1 Env of pseudovirus isolate MGRM-Chronic-B-001 (clade B) (HIV-1)"}, "[4]": {"molecular_target": "HIV-1 Env of pseudovirus isolate JR-FL (clade B) (HIV-1)"}, "[5]": {"molecular_target": "aMLV envelope (negative control pseudovirus) (aMLV)"}, "[6]": {"molecular_target": "HIV-1 Env of isolate MG RM-A-013 (pseudovirus) (HIV-1)"}, "[7]": {"molecular_target": "HIV-1 Env of isolate MGRM-G-013 (subtype G) (HIV-1)"}, "[8]": {"molecular_target": "HIV-1 Env of isolate MGRM-C-026 (subtype C), on pseudovirus (HIV-1)"}, "[9]": {"molecular_target": "HIV-1 Env of isolate MGRM-C-019 (subtype C), on pseudovirus (HIV-1)"}, "[10]": {"molecular_target": "HIV-1 Env of pseudovirus MGRM-D-020 (HIV-1)"}, "[11]": {"molecular_target": "HIV-1 Env of pseudovirus MGRM-D-019 (HIV-1)"}, "[12]": {"molecular_target": "HIV-1 envelope glycoprotein (Env) of isolate 92WR009, subtype A (HIV-1)"}, "[13]": {"molecular_target": "HIV-1 envelope glycoprotein (Env) of isolate TRO.11, on pseudovirus (HIV-1)"}, "[14]": {"molecular_target": "HIV-1 MGRM-C-027 Env (HIV-1)"}, "[15]": {"molecular_target": "HIV-1 envelope glycoprotein (Env) of isolate MGRM-Chronic-B-011, on pseudovirus (HIV-1)"}, "[16]": {"molecular_target": "HIV-1 MGRM-AG-005 envelope protein (Env) on pseudovirus (HIV-1)"}, "[17]": {"molecular_target": "HIV-1 Env of isolate MGRM-F1-018 (pseudovirus) (HIV-1)"}, "[18]": {"molecular_target": "HIV-1 JR-CSF Env I307A (HIV-1 (isolate JR-CSF, clade B)) (UniProt P20871)"}, "[19]": {"molecular_target": "HIV-1 envelope glycoprotein (Env) of isolate MG RM-A-001, subtype A (HIV-1)"}, "[20]": {"molecular_target": "HIV-1 Env of isolate MGRM-AE-008 (subtype AE) (HIV-1)"}, "[21]": {"molecular_target": "HIV-1 Env of isolate 98CN006 (pseudovirus) (HIV-1)"}, "[22]": {"molecular_target": "HIV-1 Env of isolate 98CN009 (pseudovirus) (HIV-1)"}, "[23]": {"molecular_target": "HIV-1 Env of isolate MGRM-C-002 (HIV-1)"}, "[24]": {"molecular_target": "HIV-1 Env of isolate MGRM-A-001 (pseudovirus) (HIV-1)"}, "[25]": {"molecular_target": "HIV-1 Env of isolate MGRM-AG-013 (subtype AG) (HIV-1)"}, "[26]": {"molecular_target": "HIV-1 Env of pseudovirus isolate MGRM-C-023 (clade C) (HIV-1)"}, "[27]": {"molecular_target": "HIV-1 Env of isolate MGRM-AG-005 (subtype AG) (HIV-1)"}, "[28]": {"molecular_target": "HIV-1 Env of isolate MGRM-AE-002 (subtype AE) (HIV-1)"}}}
{"substance": "4995_P16 (PGT-145) (antibody)", "values": [{"measurement": "IC50 (µg/mL), single-round pseudovirus neutralization", "setting": "[1]", "value": 1.87, "unit": "µg/mL"}, {"measurement": "IC50, pseudovirus neutralization", "setting": "[2]", "value": 0.488, "unit": "µg/mL"}, {"measurement": "IC50, pseudovirus neutralization", "setting": "[3]", "value": 3.22, "unit": "µg/mL"}, {"measurement": "IC50, pseudovirus neutralization", "setting": "[4]", "value": 30.4, "unit": "µg/mL"}, {"measurement": "IC50 (µg/mL), pseudovirus neutralization", "setting": "[5]", "value": "> 50", "unit": "µg/mL"}, {"measurement": "IC50 (µg/mL), single-round pseudovirus neutralization", "setting": "[6]", "value": 1.76, "unit": "µg/mL"}, {"measurement": "IC50 (µg/mL), pseudovirus neutralization", "setting": "[7]", "value": "> 50", "unit": "µg/mL"}, {"measurement": "IC50, single-round pseudovirus neutralization", "setting": "[8]", "value": "> 50", "unit": "µg/mL"}, {"measurement": "IC50, single-round pseudovirus neutralization", "setting": "[9]", "value": 0.005, "unit": "µg/mL"}]}
{"substance": "PGT-141 (4964_G22; 4993_K13) (antibody)", "values": [{"measurement": "IC50, pseudovirus neutralization", "setting": "[10]", "value": "> 50", "unit": "µg/mL"}, {"measurement": "IC50, pseudovirus neutralization", "setting": "[11]", "value": 1.66, "unit": "µg/mL"}]}
{"substance": "5123_A06 (PGT-125) (antibody)", "values": [{"measurement": "IC50, pseudovirus neutralization", "setting": "[12]", "value": 0.144, "unit": "µg/mL"}, {"measurement": "IC50, pseudovirus neutralization", "setting": "[13]", "value": 0.111, "unit": "µg/mL"}, {"measurement": "IC50, pseudovirus neutralization", "setting": "[14]", "value": "> 10", "unit": "µg/mL"}, {"measurement": "IC50, pseudovirus neutralization", "setting": "[15]", "value": 3.23, "unit": "µg/mL"}, {"measurement": "IC50 (ug/mL), pseudovirus neutralization", "setting": "[16]", "value": "> 10", "unit": "µg/mL"}, {"measurement": "IC50 (µg/mL), pseudovirus neutralization", "setting": "[17]", "value": "> 50", "unit": "µg/mL"}, {"measurement": "Fold IC50 increase relative to wild-type", "setting": "[18]", "value": 5, "unit": "fold"}, {"measurement": "IC50, pseudovirus neutralization", "setting": "[19]", "value": 12.4, "unit": "µg/mL"}]}
{"substance": "4970_K22 (PGT-144) (antibody)", "values": [{"measurement": "IC50 (µg/mL), single-round pseudovirus neutralization", "setting": "[1]", "value": "> 50", "unit": "µg/mL"}, {"measurement": "IC50, pseudovirus neutralization", "setting": "[2]", "value": 10.3, "unit": "µg/mL"}, {"measurement": "IC50, pseudovirus neutralization", "setting": "[3]", "value": "> 50", "unit": "µg/mL"}, {"measurement": "IC50, pseudovirus neutralization", "setting": "[4]", "value": "> 50", "unit": "µg/mL"}, {"measurement": "IC50 (µg/mL), pseudovirus neutralization", "setting": "[5]", "value": "> 50", "unit": "µg/mL"}, {"measurement": "IC50 (µg/mL), single-round pseudovirus neutralization", "setting": "[6]", "value": "> 50", "unit": "µg/mL"}, {"measurement": "IC50 (µg/mL), pseudovirus neutralization", "setting": "[7]", "value": "> 50", "unit": "µg/mL"}, {"measurement": "IC50, single-round pseudovirus neutralization", "setting": "[8]", "value": "> 50", "unit": "µg/mL"}, {"measurement": "IC50, single-round pseudovirus neutralization", "setting": "[9]", "value": 0.513, "unit": "µg/mL"}]}
{"substance": "5345_I01 (PGT-137) (antibody)", "values": [{"measurement": "IC50, pseudovirus neutralization", "setting": "[20]", "value": "> 50", "unit": "µg/mL"}, {"measurement": "IC50 (µg/mL), pseudovirus neutralization", "setting": "[21]", "value": 1.22, "unit": "µg/mL"}, {"measurement": "IC50 (µg/mL), pseudovirus neutralization", "setting": "[22]", "value": 5.06, "unit": "µg/mL"}, {"measurement": "IC50 (µg/mL), pseudovirus neutralization", "setting": "[23]", "value": 8.03, "unit": "µg/mL"}, {"measurement": "IC50 (µg/mL), pseudovirus neutralization", "setting": "[24]", "value": "> 50", "unit": "µg/mL"}, {"measurement": "IC50, pseudovirus neutralization", "setting": "[25]", "value": "> 50", "unit": "µg/mL"}, {"measurement": "IC50, pseudovirus neutralization", "setting": "[26]", "value": 0.23, "unit": "µg/mL"}, {"measurement": "IC50, pseudovirus neutralization", "setting": "[27]", "value": "> 50", "unit": "µg/mL"}, {"measurement": "IC50, pseudovirus neutralization", "setting": "[28]", "value": "> 50", "unit": "µg/mL"}]}
{"substance": "PGT-142 (4995_E20) (antibody)", "values": [{"measurement": "IC50, pseudovirus neutralization", "setting": "[10]", "value": "> 50", "unit": "µg/mL"}, {"measurement": "IC50, pseudovirus neutralization", "setting": "[11]", "value": 0.155, "unit": "µg/mL"}]}
{"substance": "5141_B17 (PGT-126) (antibody)", "values": [{"measurement": "IC50, pseudovirus neutralization", "setting": "[12]", "value": "> 50", "unit": "µg/mL"}, {"measurement": "IC50, pseudovirus neutralization", "setting": "[13]", "value": 0.041, "unit": "µg/mL"}, {"measurement": "IC50, pseudovirus neutralization", "setting": "[14]", "value": 1.14, "unit": "µg/mL"}, {"measurement": "IC50, pseudovirus neutralization", "setting": "[15]", "value": 0.108, "unit": "µg/mL"}, {"measurement": "IC50 (ug/mL), pseudovirus neutralization", "setting": "[16]", "value": 1.35, "unit": "µg/mL"}, {"measurement": "IC50 (µg/mL), pseudovirus neutralization", "setting": "[17]", "value": 14.9, "unit": "µg/mL"}, {"measurement": "IC50, pseudovirus neutralization", "setting": "[19]", "value": "> 50", "unit": "µg/mL"}]}
{"substance": "5329_C19 (PGT-136) (antibody)", "values": [{"measurement": "IC50, pseudovirus neutralization", "setting": "[20]", "value": "> 50", "unit": "µg/mL"}, {"measurement": "IC50 (µg/mL), pseudovirus neutralization", "setting": "[21]", "value": 0.406, "unit": "µg/mL"}, {"measurement": "IC50 (µg/mL), pseudovirus neutralization", "setting": "[22]", "value": 0.428, "unit": "µg/mL"}, {"measurement": "IC50 (µg/mL), pseudovirus neutralization", "setting": "[23]", "value": "> 50", "unit": "µg/mL"}, {"measurement": "IC50 (µg/mL), pseudovirus neutralization", "setting": "[24]", "value": "> 50", "unit": "µg/mL"}, {"measurement": "IC50, pseudovirus neutralization", "setting": "[25]", "value": "> 50", "unit": "µg/mL"}, {"measurement": "IC50, pseudovirus neutralization", "setting": "[26]", "value": 3.2, "unit": "µg/mL"}, {"measurement": "IC50 (ug/mL), pseudovirus neutralization", "setting": "[16]", "value": "> 10", "unit": "µg/mL"}, {"measurement": "IC50, pseudovirus neutralization", "setting": "[27]", "value": "> 50", "unit": "µg/mL"}, {"measurement": "IC50, pseudovirus neutralization", "setting": "[28]", "value": "> 50", "unit": "µg/mL"}]}
{"substance": "4877_D15 (PGT-122) (antibody)", "values": [{"measurement": "IC50, pseudovirus neutralization", "setting": "[12]", "value": 42.4, "unit": "µg/mL"}, {"measurement": "IC50, pseudovirus neutralization", "setting": "[13]", "value": 0.011, "unit": "µg/mL"}, {"measurement": "IC50, pseudovirus neutralization", "setting": "[14]", "value": 0.0388, "unit": "µg/mL"}, {"measurement": "IC50, pseudovirus neutralization", "setting": "[15]", "value": "> 50", "unit": "µg/mL"}, {"measurement": "IC50 (ug/mL), pseudovirus neutralization", "setting": "[16]", "value": "> 10", "unit": "µg/mL"}, {"measurement": "IC50 (µg/mL), pseudovirus neutralization", "setting": "[17]", "value": 0.563, "unit": "µg/mL"}, {"measurement": "IC50, pseudovirus neutralization", "setting": "[19]", "value": "> 50", "unit": "µg/mL"}]}
{"substance": "PGT-145 (4995_P16) (antibody)", "values": [{"measurement": "IC50, pseudovirus neutralization", "setting": "[10]", "value": 10, "unit": "µg/mL"}, {"measurement": "IC50, pseudovirus neutralization", "setting": "[11]", "value": 0.111, "unit": "µg/mL"}]}
{"substance": "5343_B08 (PGT-135) (antibody)", "values": [{"measurement": "IC50, pseudovirus neutralization", "setting": "[20]", "value": "> 50", "unit": "µg/mL"}, {"measurement": "IC50 (µg/mL), pseudovirus neutralization", "setting": "[21]", "value": 0.429, "unit": "µg/mL"}, {"measurement": "IC50 (µg/mL), pseudovirus neutralization", "setting": "[22]", "value": 0.071, "unit": "µg/mL"}, {"measurement": "IC50 (µg/mL), pseudovirus neutralization", "setting": "[23]", "value": "> 50", "unit": "µg/mL"}, {"measurement": "IC50 (µg/mL), pseudovirus neutralization", "setting": "[24]", "value": "> 50", "unit": "µg/mL"}, {"measurement": "IC50, pseudovirus neutralization", "setting": "[25]", "value": "> 50", "unit": "µg/mL"}, {"measurement": "IC50, pseudovirus neutralization", "setting": "[26]", "value": 0.051, "unit": "µg/mL"}, {"measurement": "IC50 (ug/mL), pseudovirus neutralization", "setting": "[16]", "value": "> 10", "unit": "µg/mL"}, {"measurement": "IC50, pseudovirus neutralization", "setting": "[27]", "value": "> 50", "unit": "µg/mL"}, {"measurement": "IC50, pseudovirus neutralization", "setting": "[28]", "value": "> 50", "unit": "µg/mL"}]}
